Laboratory results as given in publication PMC10914628 (Nature Chemistry, 2024).

Biological target: the molecule itself
Assay: SEC; apo state; Superdex 200 in crosslinking buffer (20 mM HEPES pH 7.2, 250 mM KCl, 5 mM EDTA), before and after cross-linking

B1: p97-ND1L-ΔCys-F360C-A413C (domain or fragment)
chain: not shown
modifications: C360 and C413 joined between subunits by bismaleimidoethane (BMOE) in the cross-linked sample
notes: human p97 (VCP), UniProt P55072, residues 1-480; ΔCys: C69V-C77V-C105A-C174A-C184W-C209V-C415A, plus F360C and A413C; also called cysteine-free p97 variant with F360C and A413C; source: E. coli BL21(DE3), purified (Ni-NTA, TEV cleavage, SEC on Superdex 200; apyrase digestion); reduced with DTT and gel-filtered before cross-linking; not shown: His6, N-terminal, cleaved
With B1 the “stoichiometry N” value was 6.
